Source: publication PMC3946335 (Small (Weinheim an der Bergstrasse, Germany), 2013)

Tests used:
recombinant MMP-14 = recombinant MMP-14 (Homo sapiens, UniProt P50281); format: biochemical; conditions: ICT 10 mM, recombinant MMP-14 20 μg/mL, PBS buffer, 37 °C, identical conditions (2 hours); HPLC
MMTV-PyMT tumors [1] = assay: In vivo T2-weighted MR imaging of tumor accumulation; parameters: species or system mouse; conditions: single IV injection: ferumoxytol 0.5 mmol Fe/kg, CLIO-ICT 0.75 mmol Fe/kg, ICT 1.0 μmol/kg; up to 24 h; n=6
MMTV-PyMT tumor cells = assay: Caspase-3/7 assay; format: cell-based, murine; conditions: DEVD-AMC fluorescence, triplicate samples, printed as x:1
4T1 cells = assay: Caspase-3/7 assay; format: cell-based, murine; conditions: low MMP-14
human dermal fibroblasts = assay: Caspase-3/7 assay; format: cell-based; conditions: MMP-14 negative fibroblasts
[2] = Number of ICT molecules per nanoparticle, from FITC absorption and emission; format: physicochemical; conditions: from attached fluorescein absorption at 492 nm and known TNP concentration
MMTV-PyMT tumors [3] = assay: Tumor histology; format: in vivo, mouse
[4] = Iron oxide core size by TEM; format: physicochemical; conditions: after functionalization
[5] = Laser Doppler Electrophoresis, zeta potential; format: physicochemical
PyMT tumors = assay: Antitumor activity, daily tumor size; format: in vivo, mouse; conditions: calipers, daily for 7 days after single IV injection; n=6 mice
[6] = r1 and r2 relaxivities by NMR; format: physicochemical; conditions: relaxivity; 1 – 60 mM iron; Varian Inova 300MHz (7 Tesla) NMR
[7] = test system: normal organs (liver, spleen, kidney, brain, bone marrow and heart); assay: Toxicity in normal organs; format: in vivo, mouse; conditions: histology and caspase-3 activity
[8] = Dynamic Light Scattering, nanoparticle size; format: physicochemical; conditions: nanoparticle size by DLS; PBS buffer, filtered 0.2 μm, diluted to 0.6 mM iron

| Substance | prodrug cleaved by MMP-14 (recombinant MMP-14) [%] | tumor enhancement on postcontrast T2-weighted MR images (MMTV-PyMT tumors [1]) | caspase expression ratio relative to the PBS control (MMTV-PyMT tumor cells) | response to treatment (caspase assay) (4T1 cells) | cytotoxic effects (caspase assay) (human dermal fibroblasts) | # of ICT (ICT molecules per iron oxide nanoparticle) [2] | iron deposits in tumors (Prussian Blue) (MMTV-PyMT tumors [3]; 48 hours after intravenous administration) | tumor necrosis (pathologic evaluation, H&E) (MMTV-PyMT tumors [3]; MMTV-PyMT tumors) | Cy3-labeled cleaved Caspase-3 immunofluorescent staining of tumor cells (MMTV-PyMT tumors [3]; MMTV-PyMT tumors, 48 hours after administration) | iron oxide core size [4] [nm] | Z (zeta potential) ([5]; Laser Doppler Electrophoresis, PBS buffer, filtered 0.2 μm, 0.6 mM iron) | charge of the nanoparticle ([5]; sign of zeta potential, laser Doppler electrophoresis) | change in tumor size (PyMT tumors) | r1 [6] [mM⁻¹ s⁻¹] | toxicity or cell death in normal tissues [7] | D (DLS) [8] [nm] |
| --- | --- | --- | --- | --- | --- | --- | --- | --- | --- | --- | --- | --- | --- | --- | --- | --- |
| FITC-βAla-Cys-Arg-Ser-Cit-Gly-HPhe-Tyr-Leu-Tyr [ICT] | 89 | did not show any significant MR signal enhancement | 2.994 | – | – | – | – | – | – | – | – | – | – | – | – | – |
| FITC-βAla-Cys-Arg-Ser-Cit-Gly-HPhe-Tyr-Leu-Tyr [CLIO-ICT] | – | negative (dark) enhancement | 2.883 | not responsive | did not show any significant cytotoxic effects | 4.7±0.4 | Iron deposits were noted | progressive increase in the severity of tumor necrosis | significant labeling of tumor cells | 6.5±0.7 | +21±7 meV | positive | overall decrease in tumor size | 38.9 | no toxicity or cell death | 21±3 |
